Experimental data reported in patent US5871901.

Assays:
[1] = tested on: DP-1/E2F-1 + orf 6/7 (in SL2 cells) (Mus musculus? / Homo sapiens? / adenovirus type 5); assay: cell_activity; conditions: enhancement by orf 6/7 over DP-1/E2F-1
[2] = target: DP-1/E2F-1 heterodimer (murine)

Substance | activity [1] [fold] | transcriptional activity of the adenovirus E2a promoter (pE2a CAT reporter, SL2 cells) [2] [fold]
E2a promoter (-96 to +68), two E2F sites | 2 | –
Ad5 orf 6/7 protein expressed from pE4 (complete Ad5 orf 6/7 cDNA) | – | 2
